# Molecular target: the molecule itself
# Assay: SDS-PAGE in reducing and non-reducing conditions
protein,measurement,value
"recombinant human erythroferrone variant with a VPFQ insertion (ERFE^VPFQ) (natural protein, UniProt Q4G0M1 29-354, looked up) SPEPGAPSRSRARREPPPGNELPRGPGESRAGPAARPPEPTAERAHSVDPRDAWMLFVRQSDKGVNGKKRSRGKAKKLKVPFQFGLPGPPGPPGPQGPPGPIIPPEALLKEFQLLLKGAVRQRERAEPEPCTCGPAGPVAASLAPVSATAGEDDDDVVGDVLALLAAPLAPGPRAPRVEAAFLCRLRRDALVERRALHELGVYYLPDAEGAFRRGPGLNLTSGQYRAPVAGFYALAATLHVALGEPPRRGPPRPRDHLRLLICIQSRCQRNASLEAIMGLESSSELFTISVNGVLYLQMGQWTSVFLDNASGCSLTVRSGSHFSAVLLGV",stoichiometry N,3
"recombinant human erythroferrone, wild type (ERFE^WT) (natural protein, UniProt Q4G0M1 29-354, looked up) SPEPGAPSRSRARREPPPGNELPRGPGESRAGPAARPPEPTAERAHSVDPRDAWMLFVRQSDKGVNGKKRSRGKAKKLKFGLPGPPGPPGPQGPPGPIIPPEALLKEFQLLLKGAVRQRERAEPEPCTCGPAGPVAASLAPVSATAGEDDDDVVGDVLALLAAPLAPGPRAPRVEAAFLCRLRRDALVERRALHELGVYYLPDAEGAFRRGPGLNLTSGQYRAPVAGFYALAATLHVALGEPPRRGPPRPRDHLRLLICIQSRCQRNASLEAIMGLESSSELFTISVNGVLYLQMGQWTSVFLDNASGCSLTVRSGSHFSAVLLGV",stoichiometry N,3

# Source: publication PMC8005358 (Science translational medicine, 2019)
